One may read the IC50 as the concentration needed to halve the response being measured. Read a high IC50 as a need for much substance.

The record followed here is patent US20030219446A1.

Test [1] addresses CD28 receptor (human) (UniProt P10747). The test is described as follows: cell-based or functional assay.
In test [2] the target is CD28Ig fusion protein (human) (UniProt P10747). The test is described as follows: plate binding assay, ^125I-B7Ig (24 nM) on immobilized CD28Ig.
For test [3] the target is unchanged. As to the kind of experiment: competition of ^125I-B7Ig binding to immobilized CD28Ig by unlabeled B7Ig.
The target is the same in test [4]. The test is described as follows: competition of ^125I-B7Ig binding to immobilized CD28Ig.
Test [5] has as its target CD28 receptor (human) (UniProt P10747). The test is described as follows: flow cytometry, FITC-conjugated mAb 9.3 on CD28^+ CHO cells.
The target is the same in test [6]. The test is described as follows: flow cytometry, FITC-conjugated mAb 9.3 on phytohemagglutinin-stimulated T cells. In general terms: Flow cytometry measures light scatter and fluorescence of single cells or particles in a stream.
Test [7] addresses CD28Ig fusion protein (human) (UniProt P10747). As to the kind of experiment: competition of ^125I-B7Ig binding to immobilized CD28Ig by the unlabeled competitor.
Test [8] concerns the target B7 antigen (human) (UniProt P33681). As to the kind of experiment: cell-based or functional assay.
For test [9] the target is unchanged. As to the kind of experiment: flow cytometry, 5E1 cells; -cold minus +cold.
Test [10] shares this target. The test is described as follows: flow cytometry, T51 cells; -cold minus +cold.
The target is the same in test [11]. As to the kind of experiment: flow cytometry, Raji cells; -cold minus +cold.
Test [12] shares this target. As to the kind of experiment: flow cytometry, Daudi cells; -cold minus +cold.
For test [13] the target is unchanged. As to the kind of experiment: flow cytometry, Jijoye cells; -cold minus +cold.
Test [14] has the same target. The test is described as follows: flow cytometry, 5E1 cells preincubated with unlabeled BB-1.
The target is the same in test [15]. As to the kind of experiment: flow cytometry, T51 cells preincubated with unlabeled BB-1.
Test [16] shares this target. As to the kind of experiment: flow cytometry, Raji cells preincubated with unlabeled BB-1.
Test [17] has the same target. The test is described as follows: flow cytometry, Daudi cells preincubated with unlabeled BB-1.
Test [18] shares this target. The test is described as follows: flow cytometry, Jijoye cells preincubated with unlabeled BB-1.
Test [19] shares this target. The test is described as follows: flow cytometry, direct staining of 5E1 cells (positive for CD28 adhesion).
Test [20] has the same target. As to the kind of experiment: flow cytometry, direct staining of T51 cells (positive for CD28 adhesion).
Test [21] has the same target. As to the kind of experiment: flow cytometry, direct staining of Raji cells (positive for CD28 adhesion).
Test [22] shares this target. The test is described as follows: flow cytometry, direct staining of Daudi cells (positive for CD28 adhesion).
The target is the same in test [23]. The test is described as follows: flow cytometry, direct staining of Jijoye cells (positive for CD28 adhesion).
For test [24] the target is unchanged. As to the kind of experiment: flow cytometry, Namalwa cells (negative for CD28 adhesion); -cold minus +cold.
In test [25] the target is B7Ig fusion protein (human) (UniProt P33681). As to the kind of experiment: competition of ^125I-B7Ig binding to immobilized CD28Ig by the unlabeled competitor.
Test [26] has as its target B7 antigen (human) (UniProt P33681). As to the kind of experiment: flow cytometry, 1A2 cells preincubated with unlabeled BB-1 (negative for CD28 adhesion).
Test [27] shares this target. As to the kind of experiment: flow cytometry, CEM cells preincubated with unlabeled BB-1 (negative for CD28 adhesion).
For test [28] the target is unchanged. The test is described as follows: flow cytometry, HL60 cells preincubated with unlabeled BB-1 (negative for CD28 adhesion).
Test [29] has the same target. The test is described as follows: flow cytometry, HSB2 cells preincubated with unlabeled BB-1 (negative for CD28 adhesion).
For test [30] the target is unchanged. As to the kind of experiment: flow cytometry, THP-1 cells preincubated with unlabeled BB-1 (negative for CD28 adhesion).
Test [31] shares this target. As to the kind of experiment: flow cytometry, direct staining of 1A2 cells (negative for CD28 adhesion; presence of B7 not shown).
For test [32] the target is unchanged. The test is described as follows: flow cytometry, direct staining of HL60 cells (negative for CD28 adhesion; presence of B7 not shown).
Test [33] shares this target. As to the kind of experiment: flow cytometry, direct staining of HSB2 cells (negative for CD28 adhesion; presence of B7 not shown).
Test [34] has the same target. As to the kind of experiment: flow cytometry, direct staining of THP-1 cells (negative for CD28 adhesion; presence of B7 not shown).
Test [35] has the same target. As to the kind of experiment: flow cytometry, direct staining of Namalwa cells (negative for CD28 adhesion; presence of B7 not shown).

For “B7Ig fusion protein (from UniProt P33681 35-215; P01857 99-330) (Fc fusion)”, in the test with CD28 receptor (human) [1], the [^3H]-T incorporation of PBL, B7Ig (immob.), +Anti-CD3, Exp. 1 was 174000 cpm and the [^3H]-T incorporation of PBL, B7Ig (immob.), -Anti-CD3, Exp. 1 was 100 cpm. Also, the radioactivity bound without competitor in [2] stood at 7800 cpm. The IC50 in test [3] came to 280 nM.

Consider “Monoclonal antibody (mAb) 9.3 (anti-CD28)”, for which, in the test with CD28 receptor (human) [1], the [^3H]-T incorporation of PBL, mAb 9.3 (immob.), +Anti-CD3, Exp. 1 is 137000 cpm; the [^3H]-T incorporation of PBL, mAb 9.3 (immob.), -Anti-CD3, Exp. 1 turned out to be 100 cpm; the [^3H]-T incorporation of PBL, mAb 9.3 (soln.), +Anti-CD3, Exp. 1 was determined as 156000 cpm; the [^3H]-T incorporation of PBL, mAb 9.3 (soln.), +Anti-CD3, Exp. 2 stood at 75800 cpm. For the same substance, in the test with CD28 receptor (human) [1], the [^3H]-T incorporation of PBL, mAb 9.3 (soln.), -Anti-CD3, Exp. 1 came to 300 cpm; the [^3H]-T incorporation of PBL, mAb 9.3 (soln.), -Anti-CD3, Exp. 2 is 400 cpm; the adhesion of B7 transfected COS cells to CD28^+ CHO cells without EDTA, blocking by mAb 9.3 turned out to be 40%; the adhesion of T51 cells to CD28^+ CHO cells, reduction by mAb 9.3 with EDTA was determined as 93%. Moreover, in the test with CD28 receptor (human) [1], the adhesion of T51 cells to CD28^+ CHO cells, reduction by mAb 9.3 without EDTA was 62% and the half-maximal inhibition of CD28-mediated adhesion of PM lymphoblastoid cells to CD28^+ CHO cells stood at 10 nM. In [4], the fold more effective as a competitor than B7Ig worked out at 65 fold. Also, in the test with CD28 receptor (human) [5], the mean channel (linear fluorescence units) (linear fluorescence units) was found to be 116. In the test with CD28 receptor (human) [6], the mean channel (linear fluorescence units) (linear fluorescence units) is 11.3. Besides, in test [7], the IC50 worked out at 4.3 nM.

mAb 9.3 (Fab fragments) had a [^3H]-T incorporation of PHA blasts, stimulation B7^+ CHO, mAb 9.3 Fab with CD28 receptor (human) [1] of 132000 cpm.

For mAb BB-1 (anti-B7) (antibody), the [^3H]-T incorporation of PHA blasts, stimulation B7^+ CHO, mAb BB-1 with B7 antigen (human) [8] was 98300 cpm. In the test with B7 antigen (human) [8], this substance showed an adhesion of Jijoye cells to CD28^+ CHO cells, blocking by mAb of 60%. The SPECIFIC BINDING (mean fluorescence) in the test with B7 antigen (human) [9] turned out to be 10.6 linear units; in the test with B7 antigen (human) [10] it was 13.4 linear units; with B7 antigen (human) [11], 4.3 linear units; with B7 antigen (human) [12] it was 3.6 linear units; in the test with B7 antigen (human) [13], 15 linear units; in the test with B7 antigen (human) [24] it was 1.6 linear units. In addition, the mean fluorescence, FITC-BB-1 +COLD with B7 antigen (human) [14] came out at 2.4 linear units; with B7 antigen (human) [15], 3 linear units; in the test with B7 antigen (human) [16], 2.8 linear units; in the test with B7 antigen (human) [17], 2.8 linear units; with B7 antigen (human) [18], 2.8 linear units; with B7 antigen (human) [26], 4.3 linear units. In addition, the mean fluorescence, FITC-BB-1 +COLD in the test with B7 antigen (human) [27] came out at 1.9 linear units; in the test with B7 antigen (human) [28], 3.1 linear units; with B7 antigen (human) [29], 2.3 linear units; with B7 antigen (human) [30], 3 linear units. In addition, the mean fluorescence, FITC-BB-1 -COLD was 13 linear units with B7 antigen (human) [19]; 16.4 linear units with B7 antigen (human) [20]; 7.1 linear units with B7 antigen (human) [21]; 6.4 linear units with B7 antigen (human) [22]; 17.8 linear units with B7 antigen (human) [23]; 4.5 linear units with B7 antigen (human) [31]. The mean fluorescence, FITC-BB-1 -COLD with B7 antigen (human) [32] is 3.1 linear units; in the test with B7 antigen (human) [33], 2.3 linear units; in the test with B7 antigen (human) [34] it was 3.1 linear units; with B7 antigen (human) [35], 3.8 linear units. For the same substance, the half-maximal inhibitory concentration (IC50) in test [25] worked out at 140 nM.
